In patent US9804152B1, “Human ex vivo skin model and its use in methods of identifying modulators of skin inflammation” (The Procter & Gamble Company, priority 2012, dated 2017):
Marks after values point to notes of the source that are not given here.

Columns and labels:
Assay type in all cases: cell-based
[1] = tested on: ex vivo human skin sample; assay: Inducers of inflammation: inflammation marker secreted into the media by ex vivo skin samples (ELISA); conditions: 20 ng/ml IL-22 only, day 4; untreated about 5,800 pg/ml
From the text: (§1) This Example describes the materials and methods used in preparing ex vivo skin samples for use according to the methods disclosed herein. Materials used in preparation of ex vivo skin samples for use in the disclosed screening methods included: Dulbecco's Modified Eagle Medium (DMEM) plus Glutamax, antibiotic and antimycotics, 1× phosphate-buffered saline (PBS), 150×15 mm sterile culture dishes, sterile gauze 4×4, disposable safety scalpels, 4 mm disposable biopsy punch, 6-well cell-culture inserts, disinfected tweezers, cotton-tipped applicators, 6-well culture plates, ruled, disinfected cutting mat (12×12), scraper handle, tissue freezing medium, biopsy cassettes, frozen-tissue freezing vessels, 10% formalin, shipping containers for fixed tissue, and biohazard/sharps containers. Media was prepared in advance of the arrival of ex vivo skin. The skin arrived with the dermis (fat) side down on sterile DMEM soaked gauze in a sterile culture dish. The culture dish was taped shut and in a biohazard zip-lock baggie on an ice pack in a secondary container.
(§2) On arrival, the skin was removed from the bag and soaked in 3×DMEM media (3× refers to concentration of antibiotic and antimycotics) and stored at 4° C. for 1 hour. After 1 hour, the skin was removed from the 3×DMEM and rinsed with sterile 1×PBS. The skin was placed in a clean culture dish containing gauze soaked with 1×DMEM. The sample was put in culture the same day as arrival. If necessary, however, the ex vivo skin samples can be stored at 4° C. overnight.
In preparation for culture, the following was performed: on a cutting mat, the skin was flipped over so that the epidermis was down and the subcutis (fat) was exposed. The fat was removed with a disposable scalpel by carefully grasping one corner of the skin with sterile serrated forceps and scraping the fat away with the blade held at a 45° angle to the skin. After the fat was removed, the surgical edges were cut off with a scalpel using a scraper as a straight edge guide and to hold the skin in place. […]

[2] = tested on: ex vivo human skin sample; assay: Inducers of inflammation: inflammation marker gene expression in ex vivo skin samples (PCR); conditions: for CALML5 Up-Down Regulation (relative to control) / DEFB4 Up-Down Regulation (relative to control) / FLG Up-Down Regulation (relative to control) / IL-6 Up-Down Regulation (relative to control) / IL-8 Up-Down Regulation (relative to control) / KRT6A Up-Down Regulation (relative to control) / KRT10 Up-Down Regulation (relative to control) / S100A7 Up-Down Regulation (relative to control) / TNF-α Up-Down Regulation (relative to control): IL-17 or IL-22 alone, 96 hours
From the text: as §1, §2
In preparation for culture, the following was performed: on a cutting mat, the skin was flipped over so that the epidermis was down and the subcutis (fat) was exposed. The fat was removed with a disposable scalpel by carefully grasping one corner of the skin with sterile serrated forceps and scraping the fat away with the blade held at a 45° angle to the skin. After the fat was removed, the surgical edges were cut off with a scalpel using a scraper as a straight edge guide and to hold the skin in place. Using the scraper as a guide, the skin was cut into 1.25 cm (2×2 squares on grid) wide strips using a ruler to measure the width. The strip was rinsed in a 100 mm culture dish containing 1×PBS. The strips were cut into 1.25 cm^2 squares and placed in a 100 mm culture dish on 1×DMEM-soaked gauze until they were put into culture 30 minutes later.
Culture plates were prepared that included 2.5 ml of media or media with treatment (e.g., a candidate modulator, an inflammation inducer, and/or an inhibitor of inflammation) in each well of a 6-well plate. One Millicell culture insert was added to each well and 100 μl of 1× DMEM was put in the center of each insert membrane. Squares of skin tissue were selected randomly and placed into each of the inserts (one piece of skin per insert), on top of the media on the membrane. The plates were stored at 33° C., with fresh media changes daily. As a control, baseline tissue measurements were collected from excess waste (cryogenics were used for snap-freezing). Baseline biopsy collection included two 4 mm punches for an MTT colorimetric assay (described below); one 4 mm punch was snap-frozen in OCT tissue compound for fresh histology; one 4 mm punch was fixed in 10% formalin and sent out for paraffin embedding. Expression measurements of inflammation marker genes were performed using PCR and primers appropriate to the known sequence of the gene(s) of interest.
Culturing and treatment of the ex vivo skin model comprised replicates of n=5. Before experimental treatment, compounds (e.g., a candidate modulator, an inflammation inducer, or a suppressor of inflammation) were solubilized in appropriate solvents (including PBS, media, alcohol, and DMSO). Appropriate dilutions were made for treatment and 15 ml of media was used per plate per day for treatment, with 2.5 ml of media per well under the cell culture insert. Media was pre-warmed and changed every day during the experiment.

[3] = tested on: ex vivo human skin sample; assay: Histological analysis of ex vivo skin samples; conditions: IL-22 at 20 ng/mL, biopsied six days after treatment, vs untreated sample at 24 hours
Experimental: The first sample was analyzed 24 hours after being collected (i.e., biopsied) from an untreated ex vivo skin sample, and the second sample was collected (i.e., biopsied) from an ex vivo skin sample six days after the skin sample was treated with IL-22 at 20 ng/mL. […] Also consistent was the effect of 10 μM clobetasol in inhibiting inflammation, as measured by a reduction in marker gene expression. In particular, S100A7 was induced about 34-fold relative to untreated skin samples, with clobetasol leading to about 26-fold increase in expression relative to the untreated control. For IL-8, induction was about 16-fold and clobetasol reduced that to about 3-fold. For IL-6, induction was about 6-fold and clobetasol inhibited that value to about 0.3-fold relative to control values. For DEFB4, induction was about 800-fold and clobetasol reduced that increase to about 200-fold relative to controls.

B1: IL-22: pro-inflammatory cytokine used as inducer of inflammation; also inducer of cell proliferation (protein, UniProt Q9GZX6 34-179, looked up)
Interleukin-22: APISSHCRLDKSNFQQPYITNRTFMLAKEASLADNNTDVRLIGEKLFHGVSMSERCYLMKQVLNFTLEEVLFPQSDRFQPYMQEVVPFLARLSNRLSTCHIEGDDLHIQRNVQKLKDTVKKLGESGEIKAIGELDLLFMSLRNACI
IL-8 secreted into the media [1]: about 5,500 pg/ml
induction of inflammation in ex vivo skin samples, in words [2]: shown to induce inflammation in ex vivo skin samples
DEFB4 expression relative to an untreated ex vivo skin sample ([2]; 2 ng/ml IL-22): 0.00
KRT10 fold-expression level relative to an untreated ex vivo skin sample ([2]; 2 ng/ml IL-22): about 0.00 fold
DEFB4 expression relative to an untreated ex vivo skin sample ([2]; 20 ng/ml IL-22): about 3.00
KRT10 fold-expression level relative to an untreated ex vivo skin sample ([2]; 20 ng/ml IL-22): about −3.00 fold
DEFB4 expression relative to an untreated ex vivo skin sample ([2]; 200 ng/ml IL-22): about 20.00
KRT10 fold-expression level relative to an untreated ex vivo skin sample ([2]; 200 ng/ml IL-22): about −18.00 fold
CALML5 Up-Down Regulation (relative to control) ([2]; 2 ng/ml): 1.17*
DEFB4 Up-Down Regulation (relative to control) ([2]; 2 ng/ml): −1.03
FLG Up-Down Regulation (relative to control) ([2]; 2 ng/ml): 1.28
IL-6 Up-Down Regulation (relative to control) ([2]; 2 ng/ml): 1.35
IL-8 Up-Down Regulation (relative to control) ([2]; 2 ng/ml): 1.71*
KRT6A Up-Down Regulation (relative to control) ([2]; 2 ng/ml): −1.16
KRT10 Up-Down Regulation (relative to control) ([2]; 2 ng/ml): 1.40
S100A7 Up-Down Regulation (relative to control) ([2]; 2 ng/ml): 1.02
TNF-α Up-Down Regulation (relative to control) ([2]; 2 ng/ml): 1.95*
CALML5 Up-Down Regulation (relative to control) ([2]; 20 ng/ml): −2.29*
DEFB4 Up-Down Regulation (relative to control) ([2]; 20 ng/ml): 2.69*
FLG Up-Down Regulation (relative to control) ([2]; 20 ng/ml): −10.55*
IL-6 Up-Down Regulation (relative to control) ([2]; 20 ng/ml): 1.30
IL-8 Up-Down Regulation (relative to control) ([2]; 20 ng/ml): 1.43
KRT6A Up-Down Regulation (relative to control) ([2]; 20 ng/ml): 1.32
KRT10 Up-Down Regulation (relative to control) ([2]; 20 ng/ml): −2.69*
S100A7 Up-Down Regulation (relative to control) ([2]; 20 ng/ml): 2.04*
TNF-α Up-Down Regulation (relative to control) ([2]; 20 ng/ml): 1.56*
CALML5 Up-Down Regulation (relative to control) ([2]; 200 ng/ml): −4.61*
DEFB4 Up-Down Regulation (relative to control) ([2]; 200 ng/ml): 20.23*
FLG Up-Down Regulation (relative to control) ([2]; 200 ng/ml): −13.37*
IL-6 Up-Down Regulation (relative to control) ([2]; 200 ng/ml): 1.31
IL-8 Up-Down Regulation (relative to control) ([2]; 200 ng/ml): 1.72*
KRT6A Up-Down Regulation (relative to control) ([2]; 200 ng/ml): 1.08
KRT10 Up-Down Regulation (relative to control) ([2]; 200 ng/ml): −17.54*
TNF-α Up-Down Regulation (relative to control) ([2]; 200 ng/ml): 1.33*
histology: skin cell proliferation (basal layer) [3]: clearly exhibits a proliferative basal layer
